Earlier results in publication PMC4476730.
pKd: −log10 of the molar value. Where two headings read alike, the source gives them in different places.

How the values were obtained:
CBP KIX (Homo sapiens) [1] = target: CBP KIX (Homo sapiens) (UniProt Q92793)
CBP KIX (Homo sapiens) [2] = target: CBP KIX (Homo sapiens) (UniProt Q92793); remark: listed apart in the source

UniProt Q92793, sequence (Q92793 584-669): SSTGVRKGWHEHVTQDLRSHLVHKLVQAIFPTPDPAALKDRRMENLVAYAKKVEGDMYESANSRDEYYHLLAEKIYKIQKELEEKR

For E2A AD2 (from UniProt P15923), the pKd (CBP KIX (Homo sapiens) [1]) is listed as 4.77 and the pKd (CBP KIX (Homo sapiens) [2]) is listed as 5.14.
